Data set [1] relates to OZ119 CF877R zinc finger array (synthetic). The data set can be described thus: one_hybrid. The note with it: bacterial two-hybrid lacZ; SD 0.35; site triplets appear printed in F1-F2-F3 order, so 5'-3' triplet order may be reversed.
Data set [2] deals with OZ120 CF877R zinc finger array (synthetic). The experiment in a line: one_hybrid. The note with it: bacterial two-hybrid lacZ; SD 0.01.
Data set [3] concerns OZ121 CF877R zinc finger array (synthetic). The experiment in a line: one_hybrid. The note with it: bacterial two-hybrid lacZ; SD 0.19.
Data set [4] relates to OZ122 CF877R zinc finger array (synthetic). The experiment in a line: one_hybrid. Conditions: bacterial two-hybrid lacZ; SD 0.59.
The subject of data set [5] is OZ123 CF877R zinc finger array (synthetic). The experiment in a line: one_hybrid. Conditions: bacterial two-hybrid lacZ; SD 0.63.
For data set [6], the system named is OZ124 CF877R zinc finger array (synthetic). The data set can be described thus: one_hybrid. The note with it: bacterial two-hybrid lacZ; SD 0.20.
Data set [7] concerns OZ125 CF877R zinc finger array (synthetic). The experiment in a line: one_hybrid. Conditions: bacterial two-hybrid lacZ; SD 0.85.
Data set [8] deals with OZ126 CF877R zinc finger array (synthetic). The data set can be described thus: one_hybrid. Conditions: bacterial two-hybrid lacZ; SD 0.28.
Data set [9] has as its system OZ127 CF877R zinc finger array (synthetic). The experiment in a line: one_hybrid. Conditions: bacterial two-hybrid lacZ; SD 0.02.
Data set [10] deals with OZ128 CF877R zinc finger array (synthetic). The experiment in a line: one_hybrid. The note with it: bacterial two-hybrid lacZ; SD 0.07.
Data set [11] relates to OZ129 CF877R zinc finger array (synthetic). The experiment in a line: one_hybrid. Conditions: bacterial two-hybrid lacZ; SD 0.07.
Data set [12] concerns OZ130 CF877R zinc finger array (synthetic). The experiment in a line: one_hybrid. Conditions: bacterial two-hybrid lacZ; SD 0.22.
Data set [13] concerns OZ131 CF877R zinc finger array (synthetic). The experiment in a line: one_hybrid. The note with it: bacterial two-hybrid lacZ; SD 0.12.
Data set [14] concerns OZ132 CF877R zinc finger array (synthetic). The data set can be described thus: one_hybrid. The note with it: bacterial two-hybrid lacZ; SD 0.05.
The subject of data set [15] is OZ133 CF877R zinc finger array (synthetic). The experiment in a line: one_hybrid. The note with it: bacterial two-hybrid lacZ; SD 0.05.
Data set [16] relates to OZ134 CF877R zinc finger array (synthetic). The data set can be described thus: one_hybrid. The note with it: bacterial two-hybrid lacZ; SD 0.19.
In data set [17] the test system is OZ135 CF877R zinc finger array (synthetic). The data set can be described thus: one_hybrid. The note with it: bacterial two-hybrid lacZ; SD 0.07.
Data set [18] relates to OZ136 CF877R zinc finger array (synthetic). The experiment in a line: one_hybrid. Conditions: bacterial two-hybrid lacZ; SD 0.06.
Data set [19] relates to OZ137 CF877R zinc finger array (synthetic). The data set can be described thus: one_hybrid. The note with it: bacterial two-hybrid lacZ; SD 0.04.
The subject of data set [20] is OZ138 CF877R zinc finger array (synthetic). The experiment in a line: one_hybrid. The note with it: bacterial two-hybrid lacZ; SD 0.41.
Data set [21] relates to OZ139 CF877R zinc finger array (synthetic). The experiment in a line: one_hybrid. Conditions: bacterial two-hybrid lacZ; SD 0.03.
The subject of data set [22] is OZ140 CF877R zinc finger array (synthetic). The experiment in a line: one_hybrid. Conditions: bacterial two-hybrid lacZ; SD 0.48.
Data set [23] deals with OZ141 CF877R zinc finger array (synthetic). The data set can be described thus: one_hybrid. Conditions: bacterial two-hybrid lacZ; SD 0.08.
Data set [24] has as its system OZ142 CF877R zinc finger array (synthetic). The experiment in a line: one_hybrid. The note with it: bacterial two-hybrid lacZ; SD 0.16.
For data set [25], the system named is OZ107 CF877L zinc finger array (synthetic). The data set can be described thus: one_hybrid. The note with it: bacterial two-hybrid lacZ; SD 0.58; site triplets appear printed in F1-F2-F3 order, so 5'-3' triplet order may be reversed.
In data set [26] the test system is OZ108 CF877L zinc finger array (synthetic). The data set can be described thus: one_hybrid. The note with it: bacterial two-hybrid lacZ; SD 0.51.
Data set [27] has as its system OZ109 CF877L zinc finger array (synthetic). The data set can be described thus: one_hybrid. Conditions: bacterial two-hybrid lacZ; SD 0.20.
In data set [28] the test system is OZ110 CF877L zinc finger array (synthetic). The experiment in a line: one_hybrid. The note with it: bacterial two-hybrid lacZ; SD 0.15.
For data set [29], the system named is OZ111 CF877L zinc finger array (synthetic). The experiment in a line: one_hybrid. The note with it: bacterial two-hybrid lacZ; SD 1.90.
For data set [30], the system named is OZ112 CF877L zinc finger array (synthetic). The data set can be described thus: one_hybrid. The note with it: bacterial two-hybrid lacZ; SD 0.55.
Data set [31] relates to OZ113 CF877L zinc finger array (synthetic). The experiment in a line: one_hybrid. The note with it: bacterial two-hybrid lacZ; SD 0.20.
In data set [32] the test system is OZ114 CF877L zinc finger array (synthetic). The data set can be described thus: one_hybrid. Conditions: bacterial two-hybrid lacZ; SD 0.18.
Data set [33] has as its system OZ115 CF877L zinc finger array (synthetic). The experiment in a line: one_hybrid. The note with it: bacterial two-hybrid lacZ; SD 0.12.
The test system of data set [34] is OZ116 CF877L zinc finger array (synthetic). The data set can be described thus: one_hybrid. The note with it: bacterial two-hybrid lacZ; SD 0.38.
Data set [35] concerns OZ117 CF877L zinc finger array (synthetic). The data set can be described thus: one_hybrid. The note with it: bacterial two-hybrid lacZ; SD 0.33.
Data set [36] relates to OZ118 CF877L zinc finger array (synthetic). The experiment in a line: one_hybrid. The note with it: bacterial two-hybrid lacZ; SD 0.08.
Data set [37] relates to T1, CF877 left ZFN (synthetic).
T1 sequence: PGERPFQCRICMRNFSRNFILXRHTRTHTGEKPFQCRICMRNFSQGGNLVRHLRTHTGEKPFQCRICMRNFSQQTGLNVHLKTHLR
The data set can be described thus: cell_activity. The note with it: as pair with right ZFN, K562 nucleofection; up to ~29% with adenovirus in CFBE41o-; exact clone of pair not stated.

With “GAGTGGTTA (double strand) [CF877R half-site]”, the binding signal (fold activation) in data set [1] amounted to 2.78; in [2], 2.53; in data set [3] it was 2.91; in [4], 4.72; in [5], 5.03; in [6], 4.41. The binding signal (fold activation) in [7] stood at 4; in [8], 2.57; in [9], 1.6; in [10], 2.12; in [11] it was 2.55; in [12] it was 2.47. Also, the binding signal (fold activation) in data set [13] came out at 2.08; in [14] it was 1.28; in [15], 3.24; in data set [16], 3.71; in data set [17], 2.25; in data set [18], 2.16. For the same sequence, the binding signal (fold activation) was found to be 2.26 in data set [19]; 2.52 in data set [20]; 2.74 in data set [21]; 2.99 in [22]; 2.87 in data set [23]; 2.73 in data set [24].
For the sequence “GTGGAATTA (double strand) [CF877L half-site]”, the binding signal (fold activation) in data set [25] is 1.92; in [26], 2.31; in [27], 2.83; in [28], 1.61; in data set [29], 2.2; in [30] it was 2.52. For the same sequence, the binding signal (fold activation) in data set [31] came out at 1.61; in [32], 2.95; in data set [33] it was 2.71; in [34], 2.53; in [35] it was 3.87; in data set [36], 3.55. Besides, the activity in [37] was found to be 1.2 % indels.

Values taken from patent US20110086015.
